Laboratory results from PMC7644020.

How the values were obtained:
[1] = target: cFN^ΔRGD (mouse) (UniProt P11276)
[2] = target: cFN^RGE (mouse), P11276
Sequence of cFN^RGE (mouse), P11276 (P11276 33-2477): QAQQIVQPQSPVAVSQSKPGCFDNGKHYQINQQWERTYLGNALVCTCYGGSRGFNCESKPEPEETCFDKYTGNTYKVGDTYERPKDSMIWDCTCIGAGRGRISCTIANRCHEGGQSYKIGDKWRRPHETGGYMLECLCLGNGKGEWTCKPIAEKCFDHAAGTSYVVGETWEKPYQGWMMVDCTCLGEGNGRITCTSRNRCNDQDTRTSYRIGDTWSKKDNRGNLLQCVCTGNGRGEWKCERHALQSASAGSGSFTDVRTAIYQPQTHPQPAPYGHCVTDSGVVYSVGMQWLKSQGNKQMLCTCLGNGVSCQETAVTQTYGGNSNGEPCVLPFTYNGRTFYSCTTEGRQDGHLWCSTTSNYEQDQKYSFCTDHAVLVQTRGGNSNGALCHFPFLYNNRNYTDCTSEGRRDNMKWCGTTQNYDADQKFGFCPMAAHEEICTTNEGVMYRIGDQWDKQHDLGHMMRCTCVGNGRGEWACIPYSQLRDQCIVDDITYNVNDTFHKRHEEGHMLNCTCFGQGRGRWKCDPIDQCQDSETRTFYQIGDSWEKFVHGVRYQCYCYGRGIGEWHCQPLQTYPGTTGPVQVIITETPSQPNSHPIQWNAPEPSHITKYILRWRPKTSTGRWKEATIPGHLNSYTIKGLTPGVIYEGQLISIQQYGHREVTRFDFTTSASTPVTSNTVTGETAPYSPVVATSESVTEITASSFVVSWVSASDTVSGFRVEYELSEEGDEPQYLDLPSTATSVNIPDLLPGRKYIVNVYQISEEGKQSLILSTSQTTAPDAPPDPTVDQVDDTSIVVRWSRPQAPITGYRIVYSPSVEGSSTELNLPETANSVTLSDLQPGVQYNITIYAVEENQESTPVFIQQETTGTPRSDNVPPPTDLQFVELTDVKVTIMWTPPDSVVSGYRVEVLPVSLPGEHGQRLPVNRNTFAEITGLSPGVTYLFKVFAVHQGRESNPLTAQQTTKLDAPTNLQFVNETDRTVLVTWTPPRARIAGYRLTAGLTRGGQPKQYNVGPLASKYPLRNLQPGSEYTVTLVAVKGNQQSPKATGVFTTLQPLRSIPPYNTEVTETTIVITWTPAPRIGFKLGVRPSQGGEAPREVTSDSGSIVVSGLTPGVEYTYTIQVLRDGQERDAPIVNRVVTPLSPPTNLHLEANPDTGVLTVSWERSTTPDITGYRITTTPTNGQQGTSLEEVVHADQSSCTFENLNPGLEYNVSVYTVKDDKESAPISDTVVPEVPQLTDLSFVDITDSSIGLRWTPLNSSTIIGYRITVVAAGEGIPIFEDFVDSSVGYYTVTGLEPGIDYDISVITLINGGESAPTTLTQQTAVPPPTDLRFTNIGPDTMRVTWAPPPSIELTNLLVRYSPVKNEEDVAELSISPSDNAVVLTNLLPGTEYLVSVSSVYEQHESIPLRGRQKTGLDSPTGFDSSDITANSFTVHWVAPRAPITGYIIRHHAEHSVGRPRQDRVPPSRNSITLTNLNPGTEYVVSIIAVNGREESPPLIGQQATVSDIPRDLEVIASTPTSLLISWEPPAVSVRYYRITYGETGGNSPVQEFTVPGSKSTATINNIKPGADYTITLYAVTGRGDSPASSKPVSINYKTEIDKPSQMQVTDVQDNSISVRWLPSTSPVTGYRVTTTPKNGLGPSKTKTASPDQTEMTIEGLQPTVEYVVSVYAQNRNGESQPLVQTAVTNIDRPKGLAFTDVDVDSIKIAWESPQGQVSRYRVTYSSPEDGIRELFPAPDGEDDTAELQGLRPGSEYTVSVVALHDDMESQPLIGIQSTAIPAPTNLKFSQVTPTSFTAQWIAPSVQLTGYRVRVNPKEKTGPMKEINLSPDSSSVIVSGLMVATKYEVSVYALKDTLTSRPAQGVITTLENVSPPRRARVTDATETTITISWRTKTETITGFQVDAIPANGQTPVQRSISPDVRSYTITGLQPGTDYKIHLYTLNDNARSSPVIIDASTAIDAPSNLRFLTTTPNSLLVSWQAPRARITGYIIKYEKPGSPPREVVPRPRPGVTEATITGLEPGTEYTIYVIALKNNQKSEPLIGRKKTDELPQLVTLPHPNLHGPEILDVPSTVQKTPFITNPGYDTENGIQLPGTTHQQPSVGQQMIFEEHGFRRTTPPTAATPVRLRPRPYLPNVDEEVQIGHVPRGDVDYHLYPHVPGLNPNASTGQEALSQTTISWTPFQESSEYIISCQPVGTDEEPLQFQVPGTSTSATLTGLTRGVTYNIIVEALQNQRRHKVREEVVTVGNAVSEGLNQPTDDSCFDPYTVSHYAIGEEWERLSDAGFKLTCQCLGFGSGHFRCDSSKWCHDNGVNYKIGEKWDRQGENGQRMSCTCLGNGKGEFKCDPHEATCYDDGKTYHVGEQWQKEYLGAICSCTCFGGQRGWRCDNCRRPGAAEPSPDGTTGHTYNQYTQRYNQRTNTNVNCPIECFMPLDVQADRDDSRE

spreading area of the adherent fibroblasts on the purified cFN variant [1] [µm^2]	spreading area of the few adherent fibroblasts on the purified cFN variant [2] [µm^2]	Molecule
136		α5β1 integrin on pKO-β1 fibroblasts (from UniProt P11688 45-1053; P09055 21-798) (receptor)
	419	α5β1 integrin on pKO-β1 fibroblasts, P11688 45-1053; P09055 21-798 (receptor) chain 1: FNLDAEAPAVLSGPPGSLFGFSVEFYRPGRDGVSVLVGAPKANTSQPGVLQGGAVYVCPWGTSPIQCTTIQFDSKGSRILESSLYSAKGEEPVEYKSLQWFGATVRAHGSSILACAPLYSWRTEKDPQNDPVGTCYLSTENFTRILEYAPCRSDFGSAAGQGYCQGGFSAEFTKTGRVVLGGPGSYFWQGQILSATQEQISESYYPEYLINPVQGQLQTRQASSVYDDSYLGYSVAVGEFSGDDTEDFVAGVPKGNLTYGYVTVLNGSDIHSLYNVSGEQMASYFGYAVAATDTNGDGLDDLLVGAPLLMERTADGRPQEVGRVYIYLQRPAGIDPTPTLTLTGQDEFSRFGSSLTPLGDLDQDGYNDVAIGAPFGGEAQQGVVFIFPGGPGGLSTKPSQVLQPLWAAGRTPDFFGSALRGGRDLDGNGYPDLIVGSFGVDKALVYRGRPIISASASLTIFPSMFNPEERSCSLEGNPVSCINLSFCLNASGKHVPNSIGFEVELQLDWQKQKGGVRRALFLTSKQATLTQTLLIQNGAREDCREMKIYLRNESEFRDKLSPIHIALNFSLDPKAPMDSHGLRPVLHYQSKSRIEDKAQILLDCGEDNICVPDLQLDVYGEKKHVYLGDKNALNLTFHAQNLGEGGAYEAELRVTAPLEAEYSGLVRHPGNFSSLSCDYFAVNQSRQLVCDLGNPMKAGTSLWGGLRFTVPHLQDTKKTIQFDFQILSKNLNNSQSNVVSFPLSVEAQAQVSLNGVSKPEAVIFPVSDWNPQDQPQKEEDLGPAVHHVYELINQGPSSISQGVLELSCPQALEGQQLLYVTKVTGLSNCTSNYTPNSQGLELDPETSPHHLQKREAPGRSSTASGTQVLKCPEAKCFRLRCEFGPLHRQESRSLQLHFRVWAKTFLQREYQPFSLQCEAVYEALKMPYQILPRQLPQKKLQVATAVQWTKAEGSNGVPLWIIILAILFGLLLLGLLIYVLYKLGFFKRSLPYGTAMEKAQLKPPATSDA chain 2: QTDKNRCLKANAKSCGECIQAGPNCGWCTNTTFLQEGMPTSARCDDLEALKKKGCQPSDIENPRGSQTIKKNKNVTNRSKGMAEKLRPEDITQIQPQQLLLKLRSGEPQKFTLKFKRAEDYPIDLYYLMDLSYSMKDDLENVKSLGTDLMNEMRRITSDFRIGFGSFVEKTVMPYISTTPAKLRNPCTSEQNCTSPFSYKNVLSLTDRGEFFNELVGQQRISGNLDSPEGGFDAIMQVAVCGSLIGWRNVTRLLVFSTDAGFHFAGDGKLGGIVLPNDGQCHLENNVYTMSHYYDYPSIAHLVQKLSENNIQTIFAVTEEFQPVYKELKNLIPKSAVGTLSGNSSNVIQLIIDAYNSLSSEVILENSKLPDGVTINYKSYCKNGVNGTGENGRKCSNISIGDEVQFEISITANKCPNKESETIKIKPLGFTEEVEVVLQFICKCNCQSHGIPASPKCHEGNGTFECGACRCNEGRVGRHCECSTDEVNSEDMDAYCRKENSSEICSNNGECVCGQCVCRKRDNTNEIYSGKFCECDNFNCDRSNGLICGGNGVCRCRVCECYPNYTGSACDCSLDTGPCLASNGQICNGRGICECGACKCTDPKFQGPTCETCQTCLGVCAEHKECVQCRAFNKGEKKDTCAQECSHFNLTKVESREKLPQPVQVDPVTHCKEKDIDDCWFYFTYSVNGNNEAIVHVVETPDCPTGPDIIPIVAGVVAGIVLIGLALLLIWKLLMIIHDRREFAKFEKEKMNAKWDTGENPIYKSAVTTVVNPKYEGK
